This experiment has as its target HA-DGAT2 (hemagglutinin-tagged tung tree DGAT2) (Vernicia fordii (tung tree)) (UniProt Q0QJH9). The experiment in a line: SDS-PAGE and immunoblotting of microsomal membranes.

Consider one substance from article PMC11338361.

In general, stoichiometry N refers to the number of molecules, sites or subunits per partner or assembly.

Substance “HA-DGAT2 (hemagglutinin-tagged tung tree DGAT2) (from UniProt Q0QJH9 2-322) (enzyme)” returned a stoichiometry N of 2.
